Patent publication US20160009768A1

Biological target: elongation factor-2 (EF-2) (rabbit) (UniProt P55823)
Assay: cell-based or functional assay

Row | Substance | inhibition of transcription/translation of T7-luc plasmid in IVTT [%]
1 | wild type DT382 (from UniProt P00587 26-406) (enzyme) | 90
2 | DT382 (G53E): Null construct (from UniProt P00587 26-406) (enzyme) | 20
